Data from PMC9916421.

Target: DrMoaE (MoaE of Deinococcus radiodurans, large subunit of MPT synthase) (Deinococcus radiodurans)
Assay: SEC; gel filtration profiles of DrMoaE and DrMoaER110A; standard curve from aprotinin, RNaseA, chymotrypsinogen A, ovalbumin and BSA

stoichiometry N: 2
Substance: DrMoaE (MoaE of Deinococcus radiodurans, large subunit of MPT synthase) (natural protein)
